{"source": "patent US20150352207A1", "about": "“USE OF ANTIBODIES AGAINST ICAM-1 IN COMBINATION WITH AN ANTI CANCER DRUG IN THE TREATMENT OF PATIENTS” (BIOINVENT INTERNATIONAL AB, priority 2013, published 2015)", "molecules": {"B1": {"name": "IgG B11: novel human ICAM-1 antibody targeting the B11 epitope, isolated from the naïve antibody library n-CoDeR (antibody, V domains shown)", "VH": "EVQLLESGGGLVQPGGSLRLSCAASGFTFSNAWMSWVRQAPGKGLEWVAFIWYDGSNKYYADSVKGRFTISRDNSKNTLYLQMNSLRAEDTAVYYCARYSGWYFDYWGQGTLVTVSS", "VL": "QSVLTQPPSASGTPGQRVTISCTGSSSNIGAGYDVHWYQQLPGTAPKLLIYDNNNRPSGVPDRFSGSKSGTSASLAISGLRSEDEADYYCQSYDSSLSAWLFGGGTKLTVLG", "modifications": "B11 antibody variable H region; B11 antibody variable L region"}}, "key": {"ARH-77 cells": {"system": "ARH-77 cells", "assay": "Disseminated scid/ARH-77 model of multiple myeloma", "assay_type": "in vivo, scid mice", "details": "i.v. on Days 7, 10, 13, 16; antibody 2 mg/kg, bortezomib 0.5 mg/kg; vs control treatment", "method": "ARH-77 cells or RPMI-8226 were injected intravenously into the SCID mice. (A) ARH-77 model. Animals received intravenous injections with antibody at 2 mg/kg or bortezomib (Velcade) at 0.5 mg/kg on Days 7, 10, 13, and 16 (as indicated by arrows in the graph). (B) RPMI-8226-model. B11 or control mAb was administered i.v at 2 mg/kg, twice weekly for 8 weeks, bortezomid, at 1 mg/kg, once weekly for 8 weeks, lenalidomide p.o with 2 mg/kg for 2 cycles consisting of 5 days of treatment and 2 days of wash out, melphalan i.v at 3 mg/kg, once weekly for 8 weeks, and dexamethasone (DXH) at 6 mg/kg/inj 3 times/week for 2 consecutive weeks. There were 6-10 mice per treatment group. Statistical significance was calculated using Log-rank Graphpad Prism software and determined at ***p<0.001. (C) To study the ICAM-1 level on human cells, the cells from different organs were stained and gated for CD38+/mCD45−/B11+. Left panel indicates the percentage of B11 positive cells in CD38+/mCD45 population and right panel the mean fluorescent intensity of the positive cells.\nThe anti-myeloma effect of B11 was examined in a disseminated model of multiple myeloma. The early and advanced disseminated model of multiple myeloma was performed at Oncodesign, Dijon, France. Briefly: 1×10^6 (early) or 5×10^6 (advanced) ARH-77 tumor cells in 200 μL of RPMI 1640 were injected intravenously (i.v) into the caudal vein of female scid mice (D0). Tumor cell injections were performed twenty four to forty eight hours after a whole body irradiation of mice (1.8 Gy, ^60Co, INRA, BRETENNIERES). The treatment was started at D5 RPMI-8226 model or D7 (ARH-77 model) […]. B11 or control mAb was administered i.v. at 2 mg/kg, twice weekly for 8 weeks, bortezomib, at 1 mg/kg, once weekly for 8 weeks, lenalidomide p.o with 2 mg/kg for 2 cycles consisting of 5 days of treatment and 2 days of wash out, melphalan i.v. at 3 mg/kg, once weekly for 8 weeks, and dexamethasone at 6 mg/kg 1 injected 3 times a week for 2 consecutive weeks.\nThe disseminated model of scid/ARH-77 is a well-established experimental model that resembles human multiple myeloma disease progression and disease manifestation in many respects (33). We utilized this model to further characterize IgG B11 anti-myeloma activity (FIG. 6A). Intravenous injection of irradiated scid mice with 1×10^6 ARH-77 cells was previously shown to result in their dissemination and establishment in mouse bone-marrow, and resulting osteolytic bone-lesions and hypercalcemia, and ultimately, in animal paralysis or difficulty of breathing at which time animals were immediately sacrificed. […]"}, "[1]": {"assay": "Serum antibody levels of treated xenografted mice (ELISA)", "assay_type": "in vivo", "details": "serum at end of experimentation", "method": "We next performed a dose-titration experiment to establish IgG B11 in vivo potency and the minimal dose achieving maximal anti-tumor activity, using the scid/ARH-77 model system. […] Mouse serum antibody trough concentrations were determined by ELISA at the end of experimentation. Trough antibody concentrations were then plotted against percent of maximal in vivo anti-tumour activity, and against percent of maximal ICAM-1 receptor occupancy and tumour cell PCD at corresponding antibody concentrations in vitro (FIGS. 3C, 3D, 3E, 3F and 3G). Strikingly, a near perfect correlation between antibody concentration and in vitro tumour cell receptor occupancy, in vitro tumor cell PCD, and in vivo anti-tumour activity was observed, consistent with ICAM-1 dependent direct cell cytotoxicity underlying in vivo anti-tumour activity."}}, "data": [{"molecule": "B1", "values": [{"measurement": "animal survival", "setting": "ARH-77 cells", "value": "increased mean survival time"}, {"measurement": "time to symptomatic disease onset", "setting": "ARH-77 cells", "value": "doubled the time to symptomatic disease onset"}, {"measurement": "In vivo IgG Levels", "setting": "[1]; Dose 0.02 mg/kg", "value": "0.06 ± 0.02", "unit": "µg/mL"}, {"measurement": "In vivo IgG Levels", "setting": "[1]; Dose 0.2 mg/kg", "value": "1.2 ± 0.4", "unit": "µg/mL"}, {"measurement": "In vivo IgG Levels", "setting": "[1]; Dose 2 mg/kg", "value": "20 ± 2.9", "unit": "µg/mL"}]}]}
